Test results as given in patent publication US20040018971A1 (published 2004).

Key:
HLA-A*0201 [1] = biological target: T1, HLA-A*0201 (human); assay: competition with 125I-labelled standard peptide 941.01 for purified HLA, gel filtration
T1 construct: also called HLA-A2.1

HLA-A*0201 [2] = biological target: T2, HLA-A*0201 (human); assay: inhibition of 125I-labelled standard peptide binding to purified HLA, gel filtration; ratio = IC50 of standard / IC50 of test peptide
T2 construct: also called HLA-A2.1

HLA-B*0702 [3] = biological target: HLA-B*0702 (human); assay: competition vs 125I-labelled probe peptide, purified HLA, gel filtration
HLA-B*5101 [4] = biological target: HLA-B*5101 (human); assay: as above
HLA-B*5301 [5] = biological target: HLA-B*5301 (human); assay: as above
HLA-B*5401 [6] = biological target: HLA-B*5401 (human); assay: as above
HLA-B*0702 [7] = biological target: HLA-B*0702 (human); assay: competition with 125I probe peptide, purified HLA
HLA-B*3501 = HLA-B*3501 (human); assay: competition with 125I probe peptide, purified HLA
HLA-B*5101 [8] = biological target: HLA-B*5101 (human); assay: competition with 125I probe peptide, purified HLA
HLA-B*5301 [9] = biological target: HLA-B*5301 (human); assay: competition with 125I probe peptide, purified HLA
HLA-B*5401 [10] = biological target: HLA-B*5401 (human); assay: competition with 125I probe peptide, purified HLA
HLA-A*0201 [11] = biological target: T3, HLA-A*0201 (human); assay: competitive inhibition of 125I-labelled standard peptide binding to purified HLA, gel filtration
T3 construct: also called HLA-A2.1

B1: HER2/neu peptide, position 76, 9 amino acids (peptide)
peptide: DIQEVQGYV
notes: also called Her2/neu.76 (9-mer)
- relative binding ratio (HLA-A*0201 [1]): 0.0001 ratio (IC50 of standard peptide / IC50 of test peptide)

B2: HER2/neu peptide, position 98, 10 amino acids (peptide)
peptide: RLRIVRGTQL
- relative binding ratio (HLA-A*0201 [2]): 0.0001 ratio to standard peptide

B3: HER2/neu peptide, position 338, 10 amino acids (peptide)
peptide: CARVCYGLGM
notes: also called Her2/neu.338 (10-mer)
- relative binding ratio (HLA-A*0201 [1]): 0.0011 ratio (IC50 of standard peptide / IC50 of test peptide)

B4: Her2/neu.1151.F1I9 (peptide)
peptide: FPREGPLPI
notes: 9-mer analog of the HER2/neu peptide starting at position 1151
- IC50 (HLA-B*0702 [3]): 0.3 nM
- IC50 (HLA-B*5101 [4]): 14 nM
- IC50 (HLA-B*5301 [5]): 2820 nM
- IC50 (HLA-B*5401 [6]): 4 nM

B5: Her2/neu.65.F1I10 (peptide)
peptide: FPTNASLSFI
notes: analog peptide
- IC50 (HLA-B*0702 [7]): 120 nM
- IC50 (HLA-B*3501): 424 nM
- IC50 (HLA-B*5101 [8]): 23 nM
- IC50 (HLA-B*5301 [9]): 85 nM
- IC50 (HLA-B*5401 [10]): 53 nM

B6: HER2/neu A02 supermotif peptide, position 36, 10 amino acids (peptide)
peptide: PASPETHLDM
notes: Synthetic peptide
- relative binding ratio (IC50 of standard peptide / IC50 of test peptide) (HLA-A*0201 [11]): 0.0001 ratio

B7: HER2/neu A02 supermotif peptide, position 643, 9 amino acids (peptide)
peptide: PAEQRASPL
notes: Synthetic peptide
- relative binding ratio (IC50 of standard peptide / IC50 of test peptide) (HLA-A*0201 [11]): 0.0001 ratio

B8: HER2/neu peptide, position 295, 10 amino acids (peptide)
peptide: CVTACPYNYL
notes: also called Her2/neu.295 (10-mer)
- relative binding ratio (HLA-A*0201 [1]): 0.0001 ratio (IC50 of standard peptide / IC50 of test peptide)

B9: Her2/neu.1157.F1I9 (peptide)
peptide: FPAARPAGI
notes: 9-mer analog of the HER2/neu peptide starting at position 1157
- IC50 (HLA-B*0702 [3]): 9.3 nM
- IC50 (HLA-B*5101 [4]): 131 nM
- IC50 (HLA-B*5301 [5]): 4230 nM
- IC50 (HLA-B*5401 [6]): 48 nM

B10: HER2/neu peptide, position 413, 10 amino acids (peptide)
peptide: SAWPDSLPDL
notes: T0022 prints L there and the analog Her2/neu.415.I8 implies a native L, so L is used
- relative binding ratio (HLA-A*0201 [2]): 0.0002 ratio to standard peptide

B11: HER2/neu A02 supermotif peptide, position 1158, 10 amino acids (peptide)
peptide: PAARPAGATL
notes: Synthetic peptide
- relative binding ratio (IC50 of standard peptide / IC50 of test peptide) (HLA-A*0201 [11]): 0.0001 ratio

B12: HER2/neu peptide, position 389, 9 amino acids (peptide)
peptide: TAPLQPEQL
- relative binding ratio (HLA-A*0201 [2]): 0.0002 ratio to standard peptide

B13: HER2/neu peptide, position 948, 9 amino acids (peptide)
peptide: TIDVYMIMV
- relative binding ratio (HLA-A*0201 [2]): 0.0005 ratio to standard peptide

B14: HER2/neu A02 supermotif peptide, position 927, 9 amino acids (peptide)
peptide: PAREIPDLL
notes: Synthetic peptide
- relative binding ratio (IC50 of standard peptide / IC50 of test peptide) (HLA-A*0201 [11]): 0.0001 ratio

B15: HER2/neu peptide, position 1100, 10 amino acids (peptide)
peptide: SLPTHDPSPL
- relative binding ratio (HLA-A*0201 [2]): 0.0059 ratio to standard peptide

B16: HER2/neu peptide, position 940, 9 amino acids (peptide)
peptide: RLPQPPICT
- relative binding ratio (HLA-A*0201 [2]): 0.0002 ratio to standard peptide

B17: Her2/neu.133.F1I10 (peptide)
peptide: FPGGLRELQI
notes: analog peptide
- IC50 (HLA-B*0702 [7]): 306 nM
- IC50 (HLA-B*5101 [8]): 1770 nM
- IC50 (HLA-B*5301 [9]): 310 nM
- IC50 (HLA-B*5401 [10]): 476 nM

B18: HER2/neu peptide, position 171, 9 amino acids (peptide)
peptide: DIFHKNNQL
notes: also called Her2/neu.171 (9-mer)
- relative binding ratio (HLA-A*0201 [1]): 0.0002 ratio (IC50 of standard peptide / IC50 of test peptide)

B19: HER2/neu peptide, position 305, 10 amino acids (peptide)
peptide: STDVGSCTLV
- relative binding ratio (HLA-A*0201 [2]): 0.0001 ratio to standard peptide

B20: HER2/neu A02 supermotif peptide, position 972, 8 amino acids (peptide)
peptide: LVSEFSRM
notes: Synthetic peptide
- relative binding ratio (IC50 of standard peptide / IC50 of test peptide) (HLA-A*0201 [11]): 0.0001 ratio

B21: HER2/neu peptide, position 423, 9 amino acids (peptide)
peptide: SVFQNLQVI
- relative binding ratio (HLA-A*0201 [2]): 0.0017 ratio to standard peptide

B22: Her2/neu.995.F1I10 (peptide)
peptide: FPASPLDSTI
notes: 10-mer analog of the HER2/neu peptide starting at position 995
- IC50 (HLA-B*0702 [3]): 20 nM
- IC50 (HLA-B*5101 [4]): 20 nM
- IC50 (HLA-B*5301 [5]): 30 nM
- IC50 (HLA-B*5401 [6]): 14 nM

B23: HER2/neu peptide, position 656, 10 amino acids (peptide)
peptide: SAVVGILLVV
- relative binding ratio (HLA-A*0201 [2]): 0.0009 ratio to standard peptide

B24: HER2/neu A02 supermotif peptide, position 774, 9 amino acids (peptide)
peptide: MAGVGSPYV
notes: Synthetic peptide
- relative binding ratio (IC50 of standard peptide / IC50 of test peptide) (HLA-A*0201 [11]): 0.0014 ratio

B25: Her2/neu.196.F1 (peptide)
peptide: FPMCKGSRCI
notes: analog peptide
- IC50 (HLA-B*0702 [7]): 183 nM
- IC50 (HLA-B*5101 [8]): 500 nM
- IC50 (HLA-B*5301 [9]): 6640 nM
- IC50 (HLA-B*5401 [10]): 303 nM

B26: HER2/neu peptide, position 933, 9 amino acids (peptide)
peptide: DLLEKGERL
notes: also called Her2/neu.933 (9-mer)
- relative binding ratio (HLA-A*0201 [1]): 0.0002 ratio (IC50 of standard peptide / IC50 of test peptide)

B27: HER2/neu peptide, position 978, 10 amino acids (peptide)
peptide: RMARDPQRFV
- relative binding ratio (HLA-A*0201 [2]): 0.002 ratio to standard peptide

B28: HER2/neu peptide, position 457, 9 amino acids (peptide)
peptide: SLRELGSGL
- relative binding ratio (HLA-A*0201 [2]): 0.0002 ratio to standard peptide

B29: HER2/neu A02 supermotif peptide, position 979, 9 amino acids (peptide)
peptide: MARDPQRFV
notes: Synthetic peptide
- relative binding ratio (IC50 of standard peptide / IC50 of test peptide) (HLA-A*0201 [11]): 0.0001 ratio
